The target of one data set is T1, Dcc1 triple mutant (Saccharomyces cerevisiae, UniProt P25559 90-380, K364A;R367A;R380A).
T1 sequence: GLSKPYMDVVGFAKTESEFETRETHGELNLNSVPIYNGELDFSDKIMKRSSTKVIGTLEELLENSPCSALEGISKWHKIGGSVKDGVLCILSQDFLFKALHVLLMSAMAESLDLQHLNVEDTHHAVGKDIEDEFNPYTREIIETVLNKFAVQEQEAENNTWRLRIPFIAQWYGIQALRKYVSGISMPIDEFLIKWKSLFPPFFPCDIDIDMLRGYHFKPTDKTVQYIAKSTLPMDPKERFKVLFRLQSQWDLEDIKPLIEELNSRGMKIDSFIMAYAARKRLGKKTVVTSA
Nature of the data set: EMSA; EMSA, 6% native gel in 0.5x TBE, 4 C, DNA 1 uM unless stated; binding buffer, salt and pH not stated (protein storage 10 mM Tris pH 7.5, 150 mM NaCl, 0.5 mM TCEP for the complex). The settings on record: protein: recombinant.

In a further data set the target is T2, Dcc1 dWH3 (Saccharomyces cerevisiae, UniProt P25559 90-318, del319-380).
T2 sequence: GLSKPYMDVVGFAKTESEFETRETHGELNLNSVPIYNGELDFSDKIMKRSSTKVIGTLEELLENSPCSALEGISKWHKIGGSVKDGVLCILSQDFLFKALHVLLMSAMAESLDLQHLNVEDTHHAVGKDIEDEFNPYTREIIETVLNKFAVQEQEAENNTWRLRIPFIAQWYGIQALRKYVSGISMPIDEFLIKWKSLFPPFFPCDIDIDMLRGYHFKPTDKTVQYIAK
Nature of the data set: EMSA; also none at reduced DNA, overexposed gel; EMSA, 6% native gel in 0.5x TBE, 4 C, DNA 1 uM unless stated; binding buffer, salt and pH not stated (protein storage 10 mM Tris pH 7.5, 150 mM NaCl, 0.5 mM TCEP for the complex). The settings on record: protein: recombinant; label: 5' 6-FAM on sense strand.

The source of these data is PMC5376975, “Structural studies of RFCC tf18 reveal a novel chromatin recruitment role for Dcc1”.

Consider TTTTTTTTTTTTTTTTTTTTTTTTT (ssDNA) [25-mer oligo d(T)], for which the binding result with Dcc1 triple mutant (label: 5' 6-FAM) is given as “no binding”.

B1: 22-mer dsDNA (dsDNA)
DNA 1: TCTCCACAGGAAACGGAGGGGT
DNA 2: ACCCCTCCGTTTCCTGTGGAGA
With B1, the binding result in the data set with Dcc1 triple mutant (label: 5' 6-FAM on sense strand) and with Dcc1 dWH3 was “no binding” throughout.
